Residue numbers refer to the chain shown, from its start.
T1: human transmembrane protein 180 (TMEM-180) (human, UniProt Q14CX5 1-517)
T1 construct: Membrane protein; also called TMET-180
T1 sequence: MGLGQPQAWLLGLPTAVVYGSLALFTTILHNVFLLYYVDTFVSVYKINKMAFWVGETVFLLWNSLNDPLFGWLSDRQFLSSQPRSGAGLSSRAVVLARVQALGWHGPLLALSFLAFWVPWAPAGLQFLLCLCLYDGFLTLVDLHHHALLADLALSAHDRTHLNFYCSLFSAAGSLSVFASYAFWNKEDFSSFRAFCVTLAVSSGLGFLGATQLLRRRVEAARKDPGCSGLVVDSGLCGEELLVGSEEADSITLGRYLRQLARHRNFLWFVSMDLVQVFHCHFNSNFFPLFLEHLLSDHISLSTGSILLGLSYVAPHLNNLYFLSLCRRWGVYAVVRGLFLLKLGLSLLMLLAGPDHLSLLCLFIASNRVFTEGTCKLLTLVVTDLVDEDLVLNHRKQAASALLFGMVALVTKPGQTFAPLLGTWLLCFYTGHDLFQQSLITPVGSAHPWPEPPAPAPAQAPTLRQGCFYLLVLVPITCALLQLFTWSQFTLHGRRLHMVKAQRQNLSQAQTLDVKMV

B1: rat IgM antibody clone 101 (antibody, V domains shown)
VH: QVQLKETGPGLVQPTQTLSITCTVSGFSLTSYYMQWVRQTPGKGLEWMGFIRSGGSTEYNSEFKSRLSISRDTSKNQVFLKMNSLKTEDTGVYYCARAFYGGYYFDYWGQGVMVTVSS
VL: DIVMTQSPTSISISVGERVTMNCKASQNVGSNVDWYQQKTGQSPKLLIYKASNRYTGVPDRFTGSGSGTDFTFTISNMQAEDLAVYYCMQSNTKYTFGAGTKLELK
notes: Rat IgM
B2: anti-TMEM-180 antibody clone 212 (antibody, V domains shown)
VH: EVQLVESGGGLVQPGNSLKLSCAASGFTFSDYAMAWVRQSPKKGLEWVATIIYDGSSTYYRDSVKGRFTISRDNAKSTLYLQMDSLRSEDTATYYCATHWYWYFDFWGPGTMVTVSS
VL: DIQMTQSPASLSASLGETVSIECLASEGISNDLAWYQQKSGKSPQLLIYAASRLQDGVPSRFSGSGSGTRYSLKISGMQPEDEADYFCQQSYKYPLTFGSGTKLEIK
notes: Rat IgM
B3: anti-TMEM-180 antibody clone 1052 (antibody, V domains shown)
VH: QVQLKESGPGLMQPSETLSLTCTVSGFSLTSNGVGWVRQPLGKGLVWMGTIWTGGGTNYNSGVQSRLSISRDTSKSQVFLKMNSLQPEDTGTYYCAREYMGFDYWGQGVMVTVSS
VL: NTVMTQSPTSMFTSVGDRVTMSCKASQNVGINVGWYQQKTGQSPKRLIYWASNRDTGVPDRFTGSGSGTDFTLTISNMQAEDPAIYYCLQHNSYPRTFGGGTKLELK
notes: Rat IgM; also called 1052 antibody
B4: anti-TMEM-180 antibody clone 1105 (antibody, V domains shown)
VH: B3 VH with T53S, G62A, S70T, Y99E, M100K, D103A, V109T, M110L
VL: B3 VL with T2I, F12S, T97A, K107R
notes: Rat IgM; also called 1105 antibody
B5: rat IgM antibody clone 98 (antibody, V domains shown)
VH: QVQLKESGPGLVQPSQTLSLTCTVSGFSLTRYNVHWVRQPTGKGLEWMGVIWTGGSTDYNSALKSRLSISRDTSKSQVFLKMNSLQTEDIATYYCARDLGYWGQGVMVTVSS
VL: DIVMTQTPLSLSVAIGQSASISCKSSQSLKYRDGKTYLNWVFQSPGQSPKRLIYQVSKLDSGVPDRFSGTGSETDFTLKISRVEAEDLGVYYCCQGSYSPHTFGAGTKLELK
notes: Rat IgM from a hybridoma; also called 98 antibody; IgM 98
B6: rat-human chimeric antibody clone 98 (antibody, IgG1, V domains shown)
VH: B5 VH
VL: B5 VL
notes: Clone 98 variable regions on human constant regions (IgG1), expressed in 293T cells; also called human chimeric IgG1 antibody; human chimeric IgG antibody

Tests used:
[1] = target: T1, human transmembrane protein 180 …; assay: flow cytometry on cancer cell lines, hybridoma supernatant
Procedure: The plate was centrifuged for 3 minutes at 440×g and 4° C. followed by removing the supernatant, adding antibody-producing hybridoma culture supernatant or antibody solution to the cell pellet at 50 μL/well and suspending therein. After allowing to react for 45 minutes on ice, the plate was washed three times with a mixture of 0.1% BSA, 2 mM EDTA and PBS at 200 μL/well. The supernatant was removed and secondary antibody was added to the cell pellet at 50 μL/well followed by suspending the cells therein. AlexaFluor 647 goat anti-rat IgG (H-L) (Life Technologies Corporation) was used for the secondary antibody after diluting 400-fold with a mixture of 0.1% BSA, 2 mM EDTA and PBS. After allowing to react for 45 minutes on ice, the plate was washed three times with a mixture of 0.1% BSA, 2 mM EDTA and PBS at 200 μL/well. After removing the supernatant, 50 ng/mL of propidium iodide, 0.1% BSA, 2 mM EDTA and PBS were added to the cell pellet at 250 μL/well followed by suspending therein. The cells stained in this manner were measured using a flow cytometer such as the Guava easyCyte 8HT (Merck Millipore Corporation) followed by analysis of the resulting data using FlowJO (Tomy Digital Biology Co., Ltd.). FACS analysis was carried out using colon cancer, brain tumor and hematologic cancer.
(§1) Flow cytometry was carried out in accordance with the procedure described in the above-mentioned section 3. […] The supernatant of a culture of hybridoma producing rat IgM antibody clone 365 was used as a negative control after similarly diluting to 1 μg/mL. […] A mixture of RPMI and 10% FBS was used to dilute each of the antibodies. Furthermore, antibody concentration in the hybridoma culture supernatant was measured by rat IgM-specific ELISA (Bethyl Laboratories).

[2] = target: T1, human transmembrane protein 180 …; assay: FACS on cancer-derived cell lines (Table 23)
[3] = target: T1, human transmembrane protein 180 …; assay: flow cytometry, DLD-1 parent line against TMEM-180 knockout line (considerable left shift in the knockout)
Procedure: After removing the supernatant, 50 ng/mL of propidium iodide, 0.1% BSA, 2 mM EDTA and PBS were added to the cell pellet at 250 μL/well followed by suspending therein. The cells stained in this manner were measured using a flow cytometer such as the Guava easyCyte 8HT (Merck Millipore Corporation) followed by analysis of the resulting data using FlowJO (Tomy Digital Biology Co., Ltd.). FACS analysis was carried out using colon cancer, brain tumor and hematologic cancer.
as §1

| Binder | binding result [1] | binding result [2] | further results |
| --- | --- | --- | --- |
| B1 | binds | – | – |
| B2 | binds | – | – |
| B3 | – | binds | – |
| B4 | – | binds | – |
| B5 | binds | – | – |
| B6 | – | – | binding result [3]: binds |
